Data as given in US20230365685A1 (SUZHOU NEOLOGICS BIOSCIENCE, published 2023).
Positions count from the first letter of the chain named.

B1: CH 11# (antibody, V domains shown)
VH: QVKLQQSGPDLVKPGASVKISCKASGYSFTGYYMHWVKQSHGKSLEWIGRVNPNNGGTTYKQKFKGKVILTVDKSSSTAYMELRSLTSEDSAVYYCAREGEYFDYYTMDYWGQGTTVTVSS
VL: DIELTQSPASLAVSLGQRATISCRASESVEYYGTSLMQWYQQKPGQPPKLLIYAASNVESGVPARFSGSVSGTDFSLNIHPVEEDDIAVYFCQQSRKVPITFGSGTKLELK
B2: 18C6 (antibody, V domains shown)
VH: QVQLQQPGAEIVMPGASVKMSCKASGYKFTDFLMHWVKQRPGQGLEWIGAIDTSDSYASYNQKFKGKATLTLDESSSTAYMQLSSLTSEDSAVYYCSREAMDYWGQGTSVTVSS
VL: DVVMTQTPLSLPVSLGDQASISCRSSQSLVHSNGNTYLHWFLQKPGQSPKLLIYKVSNRFSGVPDRFSGSGSGTDFTLKISRVEAEDLGVYFCCQSTHVPPLTFGAGTKLELK
B3: 3E6 VH4/3E6 VL0 (antibody, V domains shown)
VH: QVQLQESGPGLVKPSQTLSLTCTVSGYSITSGFAWNWIRQPPGNGLEWIGYISHSGSTSYNPSLKSRITISVDTSKNQFSLKLSSVTAADTAVYYCARGYRSPWFAYWGQGTTVTVSS
VL: DIQMTQSPSSLSASVGDRVTITCKASQNVGANVAWYQQKPGKAPKSLIYSASYRYSGVPSRFSGSGSGTDFTLTISSLQPEDFATYYCQQYNSYPTFGGGTKVEIK
notes: Humanized 3E6; VH and VL cloned into vectors with constant regions (CH1-FC/CL) and expressed in 293F cells; also called humanized 3E6 VH4/VL0
B4: 3E6 VH5/3E6 VL0 (antibody, V domains shown)
VH: B3 VH with V72R
VL: B3 VL
notes: Humanized 3E6; VH and VL cloned into vectors with constant regions (CH1-FC/CL) and expressed in 293F cells; also called humanized 3E6 VH5/VL0
B5: 3E6 VH7/3E6 VL0 (antibody, V domains shown)
VH: B3 VH with N44K, I49M, V72R
VL: B3 VL
notes: Humanized 3E6; VH and VL cloned into vectors with constant regions (CH1-FC/CL) and expressed in 293F cells; also called humanized 3E6 VH7/VL0
B6: 3E6 VH1/3E6 VL0 (antibody, V domains shown)
VH: B3 VH with P41F, I49M, I68V
VL: B3 VL
notes: Humanized 3E6; VH and VL cloned into vectors with constant regions (CH1-FC/CL) and expressed in 293F cells; also called humanized 3E6 VH1/VL0
B7: 3E6 VH2/3E6 VL0 (antibody, V domains shown)
VH: B3 VH with N44K, I49M, I68V
VL: B3 VL
notes: Humanized 3E6; VH and VL cloned into vectors with constant regions (CH1-FC/CL) and expressed in 293F cells; also called humanized 3E6 VH2/VL0
B8: 3E6 VH6/3E6 VL0 (antibody, V domains shown)
VH: B3 VH with N44K, I49M
VL: B3 VL
notes: Humanized 3E6; VH and VL cloned into vectors with constant regions (CH1-FC/CL) and expressed in 293F cells; also called humanized 3E6 VH6/VL0
B9: 3E6 VH3/3E6 VL0 (antibody, V domains shown)
VH: B3 VH with I68V
VL: B3 VL
notes: Humanized 3E6; VH and VL cloned into vectors with constant regions (CH1-FC/CL) and expressed in 293F cells; also called humanized 3E6 VH3/VL0
B10: 36B11 (antibody, V domains shown)
VH: QVTLKESGPGILQPSQTLSLTCSFSGFSLSTSGMGVGWIRQPSGKGLEWLAHIWWDDVKRYNPALKSRLTISKDTSSSQVFLKIASVDTADTATYYCVRTFITTTTMDYWGQGTSVTVSS
VL: QIVLTQSPTIMSASPGEKVTLTCSASSGISSSYLYWYQQKPGSSPKLWIYGTSNLASGVPARFSGSGSGTSYSLTISSLEAEDAASYFCHQWSNYPYTFGGGTKLEIK
B11: 50H9 (antibody, V domains shown)
VH: EVQLVESGGDLVKPGGSLKLSCAASGFTFSTNGMSWVRQIPDKRLEWVATISSGGSNTYYPDSVKGRFTISRDNAKNTLYLQMSSLKSEDTAMYYCARRSELGPFAYWGQGTLVTVSA
VL: DVQMIQSPSSLSASLGDIVTMTCQASQGSSVNLNWFQQKPGKSPKLLIHGSNILEDGVPSRFSGSRYGTDFTLTISSLENEDMATYFCLQHSYLPYTFGGGTKLEIK
B12: 40F11 (antibody, V domains shown)
VH: QIQLVQSGPELKKPGETVRISCKASGYTFRTAEMQWVQKMPGRGLKWIGWINTRSGVPKYAEDFKGRFALSLETSATTAYLQISNLKNEDTATYFCTRGTYAMDYWGQGTSVTVSS
VL: ENVLTQSPAIMSASPGEKVTMTCRASSIVSSSYLHWYQQKSGASPKLWIYSTSNLPSGVPARFSGSGSGTFYSLTVSSVESEDAATYYCQQYSGYPYTFGGGTKLEIK
B13: 38F8 (antibody, V domains shown)
VH: EVQLQQLGAELVKPGASVKISCKASGYIFTDYSMDWVKQSHGESLEWIGDINPNYDSLSYNQKFKGKATLTVDKSSSTAYMELRSLTSEDTAVYYCARRGYGKDYFDFWGQGTSLTVSS
VL: TWGMTQTTSSLSASLGDRVTISCRASQDISNYLNWYQQKPDGTVKLLIYHTSRLYSGVPSRFTGSGSGTDYSLTISNLEQEDIATYFCQQGNTLPLTFGAGTKLELK
B14: CH 9# (antibody, V domains shown)
VH: QVKLQESGPGLVAPSQSLSITCTVSGFSLTGYGVHWVRQPPGKGLEWLGMIWGDGSTDYNSALKSRLSISKDNSKSQVFLKMNSLQTDDTARYYCARDRGNHWYFDVWGQGTTVTVSS
VL: DIELTQSPAILSASPGEKVTMTCRASSSVSYMHWYQQKPGSSPKPWIYATSNLASGVPARFSGSGSGTSYSLTISRVEAEDAATYYCQQWSSNPLTFGAGTKLEIK
B15: CH 5# (antibody, V domains shown)
VH: B1 VH with K3Q, T59D, K61D, V68A, T71S, S77N, T107A
VL: B1 VL with V89M, L110I
B16: CH 8# (antibody, V domains shown)
VH: B1 VH with N52Y, T59S, K61N, V68A, Y106F, T107A
VL: B1 VL with P63A, V70G, V89M, Q94P, I100Y, S104G, L110I
B17: 36A2 (antibody, V domains shown)
VH: DVQLVESGGGLVQPGGSRKLSCAASGFTFSSFEMHWVRQAPETGLEWVAYISGGSTTIYYADTMKGRFTISRDNPENTLFLQMTSLRSEDTAIYYCVRSYYGLLDYWGQGTTLTVSS
VL: NIMMTQSPSSLSVSTGEKVTMSCKSSQSVLHSSNQKNFLAWFQQKPGQSPKLLIYWASTRESGVPDRFTGSGSGTDFTLTINNVQPEDLAVYYCHQYLSSLTFGAGTKLELK
notes: also called 36A12
B18: 38A8 (antibody, V domains shown)
VH: QVQLQQPGAELVKPGASVKMSCKASGYTFTTYNMHWVKQTPGQGLEWIGGIYPGNGDTSYNQKFKGKATLTADKSSSTAYMQLSSLTSEDSAVYYCARSYYTFDAMDCWGQGTSVTVSS
VL: DIVMSQSPSSLAVSAGEKVTMSCKSSQSLLNSRTRKNYLAWYQQKPGRSPKLLIYWASTRESGVPDRFTGGGSGTDFTLTISSVQAEDLAVYYCKQSYSLLTFGAGTKLELK
B19: 84G10 (antibody, V domains shown)
VH: QVQLQQSGGELVRPGSSVKISCKASGYAFSSYWMNWVKQRPGQGLEWIGQIYPGEGDTNYNGKFKGKATLTADKSSSTAYMQLSSLTSEDSAVYFCARGHFYGSSYDWFAYWGQGTLVTVSA
VL: DIQMTQSPASLSASVGETVTITCRASENINSYLAWYQQKQGKSPQLLVYHAKTLASGVPSRFSGSGSGTQFSLKINSLQPEDFGSYYCQHHYGTPLTFGAGARLELK

target: T1, biotinylated human TIM-3 (human, UniProt Q8TDQ0 22-202, limits assumed, biotinylated (sites not given)); test: competition ELISA: antibody coated, biotinylated human TIM-3 preincubated with competitor TSR022
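Wherever inhibit percentage is given: plate-coated antibody at 2 µg/mL.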

| inhibit percentage [%] | Binder |
| --- | --- |
| 0 | B1 |

target: T1, biotinylated human TIM-3; test: competition ELISA: antibody coated, biotinylated human TIM-3 preincubated with competitor 4H2
Procedure: (§1) Antibodies were diluted with PBS to 2 μg/mL. 50 μl antibody solution was added to each well of the 96-well plate, which was incubated at 4° C. overnight. The plate was then washed with wash buffer (0.05% Tween in PBS) three times and blocked with 5% skim milk in PBS at 37° C. for two hours. The biotinylated human TIM-3 and antibodies were preincubated at room temperature for half an hour and then added to the plate. The plate was then incubated at room temperature for 1 hour and washed three times with wash buffer. 50 μl streptavidin HRP (1:1000, BD) was then added to each well at room temperature and incubated for about 1 hour. 50 μl of TMB substrate was added to each well, and the reaction was then terminated with 50 μl HCL after 1-5 minutes. Absorbance was read at 450 nm and IC50 value was analyzed.

| inhibit percentage [%] | Binder |
| --- | --- |
| 99.6 | B1 |

target: T2, mouse TIM-3 (mouse, UniProt Q8VIM0 20-281); test: flow cytometry on cells stably expressing mouse TIM-3, PE-labelled secondary antibody; concentration not shown
T2 construct: whole, on cells

| binding result | Binder |
| --- | --- |
| no binding | B2 |
| no binding | B1 |

target: T1, biotinylated human TIM-3; test: competition ELISA: antibody coated, biotinylated human TIM-3 preincubated with competitor 16H1
Procedure: as §1

| inhibit percentage [%] | Binder |
| --- | --- |
| 0 | B1 |

target: T3, human TIM-3 (human, UniProt Q8TDQ0 22-202, limits assumed); test: BLI (Octet-96); antigen not named in the paragraph
T3 construct: also called HAVCR2; target antigen

| Kd [nM] | Binder |
| --- | --- |
| 1.87 | B3 |
| 1.78 | B4 |
| 1.96 | B5 |
| 467 | B6 |
| 2.21 | B7 |
| 1.46 | B8 |
| 1.98 | B9 |

target: T1, biotinylated human TIM-3; test: competition ELISA: antibody coated, biotinylated human TIM-3 preincubated with competitor 3E6
Procedure: as §1

| inhibit percentage [%] | Binder |
| --- | --- |
| 97.8 | B1 |

target: T1, biotinylated human TIM-3; test: competition ELISA: antibody coated, biotinylated human TIM-3 preincubated with competitor 19D11
Procedure: as §1

| inhibit percentage [%] | Binder |
| --- | --- |
| 99.4 | B1 |

target: T1, biotinylated human TIM-3; test: competition ELISA: antibody coated, biotinylated human TIM-3 preincubated with competitor CH 11#
Procedure: as §1

| inhibit percentage [%] | Binder |
| --- | --- |
| 100 | B1 |

target: T4, human TIM-3 recombinant protein (TIM-3-his) (human, UniProt Q8TDQ0 22-202); test: biosensor (HFC sensor, Probe Life): antibody captured, TIM-3-his in solution, 1:1 fit;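 further: antigen applied as a twofold dilution series, association and dissociation phases recorded, KD obtained as koff divided by kon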
T4 construct: also called TIM-3 protein; not shown: His tag

| Kd [nM] | koff [s⁻¹] | kon [M⁻¹ s⁻¹] | Binder |
| --- | --- | --- | --- |
| 0.432 | 0.000383 | 885000 | B10 |
| 6 | 0.00903 | 1.51e+06 | B11 |
| 2.21 | 0.0019 | 857000 | B12 |
| 1.74 | 0.00255 | 1.47e+06 | B13 |
| 553 | 0.00287 | 5190 | B14 |
| 0.207 | 0.00012 | 580000 | B2 |
| 188 | 0.00153 | 8130 | B15 |
| 512 | 0.00253 | 4930 | B16 |
| 19.1 | 0.000705 | 36900 | B1 |
| 1.01 | 0.000559 | 553000 | B17 |
| 1.36 | 0.00126 | 928000 | B18 |
| 2.84 | 0.00197 | 692000 | B19 |

target: T1, biotinylated human TIM-3; test: competition ELISA: antibody coated, biotinylated human TIM-3 preincubated with competitor CH 10#
Procedure: as §1

| inhibit percentage [%] | Binder |
| --- | --- |
| 98.2 | B1 |

target: T1, biotinylated human TIM-3; test: competition ELISA: antibody coated, biotinylated human TIM-3 preincubated with competitor MBG453
Procedure: as §1

| inhibit percentage [%] | Binder |
| --- | --- |
| 29.4 | B1 |
